T1: amphyphisin SH3 (AMPH_HUMAN), P49418
T1 chain: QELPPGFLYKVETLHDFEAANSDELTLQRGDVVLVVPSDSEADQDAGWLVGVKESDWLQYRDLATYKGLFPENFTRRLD


How the values were obtained:
[1] = target: endophilin SH3 (SH3G2_HUMAN), Q99962; assay: SPOT array
[2] = target: T1, amphyphisin SH3 (AMPH_HUMAN), P49418; assay: SPOT array

| normalised SPOT signal, Boehringer light units (BLU); mean over the file's lines of this peptide [1] | normalised SPOT signal, Boehringer light units (BLU); mean over the file's lines of this peptide [2] | Binder |
| --- | --- | --- |
| 508 | 1850 | PRGVLPRPSRVLVL [Q9NYA1 7-20] |
| 57.5 | 109 | PRKYPNRPSKTPVH [P11161 323-336] |
| 3390 | 513 | PQPPPPKPPRPQPP [P35556 29-43] |
| 35 | 110 | ASPRLRRPKSPKLP [Q96DR7 104-117] |
| 94.1 | 373 | PRANPRRPPRAIVP [Q8WYW1 101-114] |
| 835 | 829 | PPWVPWRPPSSAAV [Q9UN47 31-45] |
| 7560 | 2770 | PRPLPPRPPAAQPR [P58840 142-156] |
| 37.8 | 39.9 | PQSSLRRPDPGRLP [O95613 3094-3107] |
| 51 | 38.1 | ASNQPKRPPAAPEN [P48634 118-131] |
| 1100 | 32.1 | PREPPRRPAFLPVG [Q13387 310-323] |
| 194 | 98.2 | PRAPLHRPQKPREG [Q9P1Y6 1426-1439] |
| 206 | 72.2 | PRPRPRRPRQLTRA [Q9HAM8 17-30] |
| 5360 | 848 | ASHPPPRPPKHPSV [BAC05194 549-563] |
| 211 | 3830 | PRSVFLRPQRNLES [Q9Y2L9 614-627] |
| 2520 | 56.3 | PPWGPFRPPYSIFQ [BAC05210 58-72] |
| 394 | 193 | PPYGPSRPDKKQRM [Q9HA17 357-370] |
| 51.5 | 79.9 | PRKYPNRPSKTPLH [Q06889 258-271] |
| 4660 | 1860 | PRLRPMRPPPPPPA [Q9NXX8 675-689] |
| 32000 | 27600 | PRRPPPRPPSRLSM [Q9BVH8 778-792] |
| 1950 | 928 | PRPTPRRPRPRLAR [Q9GZW5 261-274] |
| 4220 | 131 | PQGPPRRPPPHILD [Q9P2A8 24-38] |

| normalised SPOT signal, Boehringer light units (BLU); mean over the file's lines of this peptide [1] | normalised SPOT signal, Boehringer light units (BLU); mean over the file's lines of this peptide [2] | Binder |
| --- | --- | --- |
| 508 | 79.9 | PQPPPRRPWASRVL [O94850 45-58] |
| 519 | 32.3 | PREFPFKPPSIYMI [Q96T84 67-81] |
| 221 | 1550 | PRAWPRRPRRDYSI [O43385 549-562] |
| 97 | 2800 | PQPGFRRPARPETQ [Q16624 63-76] |
| 44.1 | 27.5 | PQTELRRPGQLIDE [Q9H1Y1 836-849] |
| 926 | 41.1 | ASLFPKRPALEPVR [Q9Y2X7 686-699] |
| 96 | 32.5 | PRRRPGRPRKLPRL [Q9H4Z2 347-360] |
| 8300 | 6780 | PRQPPSRPPRRPPW [Q99785 93-107] |
| 265 | 101 | PRPSPARPKKSEES [O94836 564-577] |
| 865 | 109 | PRTLPRRPYKVLLA [O75064 398-411] |
| 4.5 | 20.2 | PQEHPKRPVLGLES [O95862 118-131] |
| 7980 | 1100 | PRRGPPRPPGLPYP [AAH31882 46-60] |
| 17600 | 6470 | PRAVPARPPTRPRF [Q8TE87 150-164] |
| 2340 | 640 | PRKLPSRPPPHYPG [O75923 185-199] |
| 5200 | 321 | PQQFPSRPPPPQPK [Q13443 782-796] |
| 1900 | 137 | PRPGPSRPPPVPAP [Q9Y2G0 18-32] |
| 1540 | 225 | PRPPPGKPPTRPGV [O94932 475-489] |
| 221 | 46.8 | PRKAPRRPGPGMSG [Q92611 83-96] |
| 58.8 | 47.3 | PREGPGRPPLDGRD [Q9H8B2 127-141] |
| 3120 | 1540 | PRPLPPRPPAAQPP [P10323 331-345] |
| 198 | 104 | PRQLLTRPHKAEDF [Q99973 2038-2051] |
